The values that follow come from US20140113854A1 (NATIONAL RESEARCH COUNCIL OF CANADA, published 2014).

In experiment [1] the target is T1, Human α-thrombin (human, UniProt P00734 328-363; P00734 364-622). The experiment in a line: derived from Ki and punfold (KD = Ki x popen), S-2366 kinetics, 37 °C.
Excerpt: (§1) Human α-thrombin was purchased from Haemotologic Technologies, Inc., VT, USA.
Experiment [2] deals with T1, Human α-thrombin. Put plainly: inhibition of thrombin-catalysed hydrolysis of chromogenic substrate S-2366, 37 °C.
Excerpt: as §1
Experiment [3] has as its target T1, Human α-thrombin. Put plainly: cell-based or functional assay.
The target of experiment [4] is T1, Human α-thrombin. Put plainly: cell-based or functional assay. This is another data set of the same source.
The target in experiment [5] is T1, Human α-thrombin. The experiment in a line: inhibition of thrombin-catalysed hydrolysis of chromogenic substrate S-2366, 25 °C.
Excerpt: as §1
For experiment [6], the target named is T2, rat-tail collagen type I (rat, UniProt P02454 152-1207; P02466 86-1125).
T2 construct: Used in solution and as randomly deposited or partially aligned hydrogel; Human collagen gels were also prepared; also called collagen hydrogel; rat collagen
T2 sequence (P02454 152-1207 limits assumed, chain 1 of 2): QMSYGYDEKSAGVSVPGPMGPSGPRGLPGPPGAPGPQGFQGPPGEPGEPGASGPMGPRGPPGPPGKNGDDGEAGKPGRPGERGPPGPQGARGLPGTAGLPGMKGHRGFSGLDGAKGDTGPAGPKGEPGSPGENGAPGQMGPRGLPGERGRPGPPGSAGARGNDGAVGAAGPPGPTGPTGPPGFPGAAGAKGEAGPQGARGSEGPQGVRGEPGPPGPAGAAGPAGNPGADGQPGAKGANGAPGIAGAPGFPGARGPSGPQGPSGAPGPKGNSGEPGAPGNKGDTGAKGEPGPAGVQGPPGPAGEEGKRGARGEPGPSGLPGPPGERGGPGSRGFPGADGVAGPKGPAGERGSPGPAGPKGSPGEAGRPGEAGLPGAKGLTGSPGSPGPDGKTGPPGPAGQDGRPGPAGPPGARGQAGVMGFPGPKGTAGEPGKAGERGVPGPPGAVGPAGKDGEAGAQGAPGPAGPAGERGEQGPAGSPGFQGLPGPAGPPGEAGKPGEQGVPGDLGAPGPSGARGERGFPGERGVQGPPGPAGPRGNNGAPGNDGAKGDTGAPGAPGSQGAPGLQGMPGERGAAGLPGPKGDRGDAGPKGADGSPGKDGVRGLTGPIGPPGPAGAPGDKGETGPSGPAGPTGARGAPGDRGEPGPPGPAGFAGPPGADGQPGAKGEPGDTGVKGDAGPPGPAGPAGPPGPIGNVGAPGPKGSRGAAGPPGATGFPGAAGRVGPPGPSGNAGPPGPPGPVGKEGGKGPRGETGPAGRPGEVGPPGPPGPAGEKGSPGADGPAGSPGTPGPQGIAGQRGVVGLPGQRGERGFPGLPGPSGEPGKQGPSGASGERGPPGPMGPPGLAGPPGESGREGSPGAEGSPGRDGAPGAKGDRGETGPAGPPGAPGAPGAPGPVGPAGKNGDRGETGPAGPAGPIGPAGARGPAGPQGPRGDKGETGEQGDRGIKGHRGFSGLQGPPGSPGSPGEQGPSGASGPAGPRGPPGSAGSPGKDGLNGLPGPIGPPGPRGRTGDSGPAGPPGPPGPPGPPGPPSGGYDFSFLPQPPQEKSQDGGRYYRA
T2 sequence (P02466 86-1125 limits assumed, chain 2 of 2): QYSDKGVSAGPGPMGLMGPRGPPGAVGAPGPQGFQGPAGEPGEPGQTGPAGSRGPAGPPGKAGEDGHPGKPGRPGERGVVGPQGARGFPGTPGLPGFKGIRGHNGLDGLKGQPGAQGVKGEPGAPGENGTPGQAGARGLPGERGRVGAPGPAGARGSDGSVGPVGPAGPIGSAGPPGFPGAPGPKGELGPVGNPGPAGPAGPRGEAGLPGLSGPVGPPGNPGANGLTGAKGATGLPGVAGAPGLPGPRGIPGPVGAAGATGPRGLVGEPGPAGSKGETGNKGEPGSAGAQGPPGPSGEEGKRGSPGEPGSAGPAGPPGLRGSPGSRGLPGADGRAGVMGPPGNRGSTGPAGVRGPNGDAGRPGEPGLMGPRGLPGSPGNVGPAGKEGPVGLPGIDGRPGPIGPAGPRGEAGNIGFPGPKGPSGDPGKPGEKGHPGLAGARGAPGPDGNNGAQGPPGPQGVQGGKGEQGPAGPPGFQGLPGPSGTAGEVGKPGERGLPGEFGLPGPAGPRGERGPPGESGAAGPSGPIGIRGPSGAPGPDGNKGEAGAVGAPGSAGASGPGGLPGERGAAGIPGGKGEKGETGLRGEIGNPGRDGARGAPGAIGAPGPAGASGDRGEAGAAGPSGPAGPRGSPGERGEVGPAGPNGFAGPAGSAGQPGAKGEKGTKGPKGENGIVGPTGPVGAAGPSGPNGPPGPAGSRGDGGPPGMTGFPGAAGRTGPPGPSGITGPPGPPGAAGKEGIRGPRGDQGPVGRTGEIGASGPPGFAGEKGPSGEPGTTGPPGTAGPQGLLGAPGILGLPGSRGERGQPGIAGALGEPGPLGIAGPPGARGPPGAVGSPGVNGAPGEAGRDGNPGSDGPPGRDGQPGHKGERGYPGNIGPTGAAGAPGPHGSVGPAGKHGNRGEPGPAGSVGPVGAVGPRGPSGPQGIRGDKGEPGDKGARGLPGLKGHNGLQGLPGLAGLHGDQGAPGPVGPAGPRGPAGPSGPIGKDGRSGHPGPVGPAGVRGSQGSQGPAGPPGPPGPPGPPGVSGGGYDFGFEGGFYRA
The experiment in a line: deuterium NMR of collagen gel formed with the peptide; called a semi-quantitative indication of peptide-collagen binding.

Experiment [7] addresses T1, Human α-thrombin. Put plainly: enzyme kinetics, thrombin-catalysed chromogenic substrate hydrolysis, 37 °C.
For experiment [8], the target named is T2, rat-tail collagen type I. The experiment in a line: NMR in collagen hydrogel.
Experiment [9] concerns the target T1, Human α-thrombin. Put plainly: inhibition of thrombin-catalysed hydrolysis of chromogenic substrate S-2366, 37 °C. The source holds these as a separate data set.
Experiment [10] has as its target T1, Human α-thrombin. Put plainly: inhibition of human α-thrombin.
The target in experiment [11] is T2, rat-tail collagen type I. Put plainly: proton NMR and deuterium coupling constant of collagen gel.
Experiment [12] deals with T1, Human α-thrombin. The experiment in a line: cell-based or functional assay. This is another data set of the same source.
Experiment [13] concerns the target T1, Human α-thrombin. Put plainly: cell-based or functional assay. This is another data set of the same source.
Experiment [14] addresses T1, Human α-thrombin. Put plainly: inhibition of thrombin by monovalent active-site moiety; conditions not given at the table.
Experiment [15] concerns the target T1, Human α-thrombin. The experiment in a line: thrombin inhibition, 37 °C.
Experiment [16] has as its target T1, Human α-thrombin. The experiment in a line: enzyme kinetics, thrombin-catalysed chromogenic substrate hydrolysis, 37 °C, 50 s window.

Numbering of substitutions follows the chain as printed. Positions of bridges follow the written chain, without caps; N, C: chain ends. Non-standard residues stand in square brackets, D forms with d. Chains are numbered I, II in the order given. No end group written: not given here. *: point of attachment. Benzenesulfonyl(4-tBu) = CC(C)(C)c1ccc(S(=O)(=O)*)cc1; dPip = O=C(O)[C@H]1CCCCN1

B1: BTI2 (peptide)
peptide: XRXGEWTYDDATKTFTVTEGDFEEIPEEYLQ
modifications: N-terminal Bbs (4-tert-butyl-benzenesulfonyl) on Arg; D-pipecolic acid (D-Pip) after Arg
notes: gb1 linker
The molecule B1 yielded a Kd in the experiment with Human α-thrombin [1] of 2.8 nM.

B2: BTI4 (peptide)
peptide: B1 peptide with V17W
modifications: N-terminal Bbs (4-tert-butyl-benzenesulfonyl) on Arg; D-pipecolic acid (D-Pip) after Arg
In turn, B2 showed a Kd with Human α-thrombin [1] of 2.8 nM.

B3: MH2 (peptide)
peptide: IRFTDGEGTPNPESHNNGDFEEIPEEYLQ
modifications: ends and bridges not checked; also: uniformly 15N-labelled
notes: Linker HV2(42-53); Uniformly 15N-labelled for the NMR work; also called mini-hirudin 2
In the case of B3, the Ki with Human α-thrombin [2] turned out to be 67 nM; with Human α-thrombin [5], 34 nM. The “IC50 (assay not given)” value with Human α-thrombin [3] is roughly 14 nM. For the same molecule, the “IC50, T = 37° C.” value with Human α-thrombin [4] was 14 nM. With GEWTWDDATKTWTWTE-NH2 (Isolated linker peptide) [trpzip4-NH2], the “reduction of the deuterium coupling constant (collagen fibril alignment)” value (“reduction … (collagen fibril alignment)” below) with rat-tail collagen type I [6] is greater than 1 Hz. On to GEWTWDDATKTWTVTE-NH2 (Isolated linker peptide) [trpzip6-NH2], for which the “reduction … (collagen fibril alignment)” value with rat-tail collagen type I [6] is less than 0.5 Hz.

In the case of IRFTDGSGSGSGSGSGSGDFEEIPEEYLQ (ends and bridges not checked, (GS)6 linker) [MH2-allGS], the values for the Ki in the experiment with Human α-thrombin [2], with Human α-thrombin [7] and with Human α-thrombin [5] were 50 nM, 58 nM and 30 nM, respectively. For IRFTDGEGTGSGSGSGSGDFEEIPEEYLQ (ends and bridges not checked, GEGT(GS)4 linker; comparative control) [MH2-GS], the binding result with rat-tail collagen type I [8] is reported as “no binding”. Further, the Ki in the experiment with Human α-thrombin [9] came to 60 nM; with Human α-thrombin [2], 59 nM; in the experiment with Human α-thrombin [5] it was 27 nM. FQPRPRFTDGEWTWDDATKTWTWTEGDFEEIPEEYL (also called P4223) [BRI-T207] had a Ki with Human α-thrombin [7] of 404 nM. This lies in the sub-micromolar range.

Molecule WDPRIRFTDGEWTWDDATKTWTWTEGDFEEIPEEYL [BRI-T219] gave a Ki with Human α-thrombin [7] of 164 nM.

B4: TWE1 (peptide)
peptide 1: {Benzenesulfonyl(4-tBu)}-R[dPip]GC
peptide 2: CGSGSGSGSGSGSGSGSGDFEEIPEEYLQ
modifications: disulfide I:4-II:1; ends not checked; also: uniformly 15N-labelled
notes: Analog of BTI1 in which the two parts are joined by a disulfide bond
On to B4, for which the affinity in the experiment with Human α-thrombin [10] corresponds to a Ki of 2.2 nM. This lies in the single-digit nanomolar range. Regarding VRFTDGEGTPKPQSHDNGDFEEIPEEYLQ (ends and bridges not checked) [MH1], the “IC50 (assay not given)” value in the experiment with Human α-thrombin [3] is roughly 33 nM. For GEWTYDDATKTFTWTE-NH2 (Isolated linker peptide) [trpzip5-NH2], the “reduction … (collagen fibril alignment)” value in the experiment with rat-tail collagen type I [6] is less than 0.5 Hz. As for GEWTYDDATKTFTVTE-NH2 (Isolated linker peptide) [gb1-NH2], the binding result with rat-tail collagen type I [11] was “no binding”. For IRFTDGEWTWDDATKTWTWTEGDFEEIPEEYLQ (ends and bridges not checked; also: 15N-labelled) [MH2-wZIP4], the “IC50, T = 37° C.” value with Human α-thrombin [4] was 154 nM. In addition, in the experiment with Human α-thrombin [12], the “IC50, fibrinogen clotting assay, 25 °C” value was determined as 245 nM; the “IC50, fibrinogen clotting assay, 37 °C” value was found to be 154 nM; the “IC50, fibrinogen clotting assay, 42 °C” value was found to be 148 nM. Besides, the “KI (Thrombin Inhibition); IC50 by the clotting assay, 37 °C” value (“KI (Thrombin Inhibition); IC50” for short) with Human α-thrombin [13] worked out at 154 nM. Regarding IRFTDGEWTYDDATKTFTVTEGDFEEIPEEYLQ (ends and bridges not checked) [MH2-gb1], in the experiment with Human α-thrombin [12], the “IC50, fibrinogen clotting assay, 25 °C” value stood at 49 nM and the “IC50, fibrinogen clotting assay, 37 °C” value worked out at 86 nM.

B5: BRI-T109 (peptide)
peptide: PRFTDGEWTWDDATKTWTWTEGDFEEIPEEYLQ
notes: MH2-wZIP4 with the first residue Ile replaced by Pro; also called P4230
B5 came in with a Ki in the experiment with Human α-thrombin [7] of 1450 nM. Regarding IRFTDGEWTWDDATKTWTVTEGDFEEIPEEYLQ [MH2-wZIP6], in the experiment with Human α-thrombin [12], the “IC50, fibrinogen clotting assay, 25 °C” value is 47 nM and the “IC50, fibrinogen clotting assay, 37 °C” value came to 53 nM. In addition, in the experiment with Human α-thrombin [13], the “KI (Thrombin Inhibition); IC50” value worked out at 53 nM. In the case of IRFTDGEWTYDDATKTFTWTEGDFEEIPEEYLQ [MH2-wZIP5], in the experiment with Human α-thrombin [12], the “IC50, fibrinogen clotting assay, 25 °C” value stood at 80 nM and the “IC50, fibrinogen clotting assay, 37 °C” value was determined as 107 nM. In addition, the “KI (Thrombin Inhibition); IC50” value in the experiment with Human α-thrombin [13] is 107 nM.

Regarding IRFTDG (Monovalent active-site moiety), affinity with Human α-thrombin [14] was put at a Ki of 7000 nM. Consider IRFTDGSWTWEGNKWTWKGDFEEIPEEYLQ (also called P4269) [MH2-wZIP1], for which the affinity in the experiment with Human α-thrombin [7], expressed as Ki, was 18.4 nM. In other words, the double-digit nanomolar range.

Molecule IRFTDGGSWTWEGNKWTWKGGDFEEIPEEYLQ (also called P4268) [MH2-wZIP1-2G] displayed a Ki in the experiment with Human α-thrombin [7] of 16.6 nM. For [dF]PRPRFTDGEWTWDDATKTWTWTEGDFEEIPEEYL (ends and bridges not checked, also called P4229) [BRI-T208], affinity with Human α-thrombin [7] was put at a Ki of 28 nM. For the same molecule, in the experiment with Human α-thrombin [15], the “fold reduction of Ki as compared to BRI-T207” value was roughly 13 fold and the “fold reduction of Ki as compared to MH2-wZIP4” value was roughly 5 fold.

For [dF]PRIRFTDGEWTWDDATKTWTWTEGDFEEIPEEYL (ends and bridges not checked, also called P4238) [BRI-T218], the Ki with Human α-thrombin [16] was found to be 14 nM.
